Reference: patent US11390653B2, “Amino acid-specific binder and selectively identifying an amino acid” (priority 2018, dated 2022)

Tests used:
F1G2 peptide [1] = assay: SPR, peptide on streptavidin chip, ClpS2 variant protein in solution; assay type: binding; conditions: for specificity between N-terminal Phe and Trp, in words: from SPR binding data
Procedure: (§1) With regard to surface plasmon resonance (SPR), SPR data was collected by loading a streptavidin chip with the target biotinylated peptides in each of the four channels, and then flowing the protein over the chip at each concentration for 180 seconds before washing with 50 mM Tris-HCl, pH 8.0, 300 mM NaCl, 1 mM DTT, 5% glycerol buffer for 180 seconds. […] The four channels were used such that the negative control peptide (A1G2) was in channel 1, F1G2 in channel 2, W1G2 in channel 3, and Y1G2 in channel 4. The negative control peptide channel was used as a baseline for subtraction, which accommodates both any non-specific binding and refractive index change. A steady state response at each concentration was plotted and fit to calculate the KD, while the resonance units vs. time was used to calculate a koff for each mutant protein with each peptide.
(§2) Regarding characterization of the ClpS mutant protein binding kinetics, for peptide sequencing via some recently proposed methods reagents can bind peptides affixed to a surface. Two A. tumefaciens ClpS2 protein variants (V2, described above, and V1) were expressed and purified from E. coli. […] The binding properties of each variant were analyzed using surface plasmon resonance (SPR).

Y1G2 peptide = assay: as above; assay type: binding
Procedure: as §1, §2

W1G2 peptide [2] = assay type: binding
Procedure: as §1, §2

F1G2 peptide [3] = assay: yeast/peptide colorimetric pull-down assay; assay type: binding; conditions: yeast-displayed protein
Procedure: (§3) Incubation and wash steps were repeated.

Leu NAA peptide = assay: yeast/peptide colorimetric pull-down assay; assay type: binding; conditions: yeast-displayed protein
Procedure: as §3

Tyr NAA peptide = assay: yeast/peptide colorimetric pull-down assay; assay type: binding; conditions: yeast-displayed protein
Procedure: as §3

[4] = thermal stability by intrinsic protein fluorescence; assay type: physicochemical; conditions: compared with wild-type and V1
Procedure: The thermal stability of the variants was assessed. Each variant was loaded in 3×PBS at approximately 1 mg/mL concentration in capillary tubes and the intrinsic protein fluorescence recorded at 330 nm and 350 nm while heating the sample over a 35-95° C. at a rate of […].

W1G2 peptide [5] = target: T1, W1G2 peptide (Agrobacterium fabrum, UniProt Q8UD95, E37S/P35C/R36P); assay type: binding; set-up: His6 (N); TEV protease cleavage site (N); made in house; host or cells: BL21 Escherichia coli; conditions: SPR
Procedure: as §1, §2

W1G2 peptide [6] = target: T1, W1G2 peptide; assay: flow cytometry of yeast displaying ClpS proteins; assay type: binding; set-up: factor Xa cleavage site (N); expressed in transfected cells; host or cells: Saccharomyces cerevisiae EBY100, pCTCON2 library clone; conditions: yeast-displayed protein
Procedure: After two rounds of MACs selection, the library was sorted by flow cytometry. […] A typical reaction contained 100 μL of cells (containing approximately 10^6 cells), 10 μL of peptide at a concentration between 10 nM to 10 μM, and 25 μL of a master mix containing 2 μL of an anti-myc antibody, 4 μL of the SAPE (streptavidin, R-phycoerythrin conjugate—1 mg/mL) and 19 μL of PBS/BSA for each sample.
Cells were washed with PBS/BSA and sorted using a FACS Aria cytometer and collected in 1 mL of SD-CAA media. The number of cells that bound the peptide improved with each round and were sorted with sequentially lower concentrations of peptide to increase the stringency of the selection. […]
With regard to directed evolution of ClpS, random mutagenesis and screening was used to select proteins with higher affinity binding to the target NAA. In subsequent steps, specific residues were determined from initial screens with a targeted mutagenesis step. […] Using FACS, we assessed the affinity of each mutant for the N-terminal amino acid on the target peptide based on which quadrant the fluorescent signal fell into as shown in FIG. 15. […] If there is also a high fluorescence signal along the x-axis (streptavidin-PE) then the peptide is presumably bound to the protein variant, and the signal will appear in Q2. […]

[7] = relative specificity factor, ratio of binding affinities

B1: A. tumefaciens ClpS2 [Cys34 Pro35 Ser36] (protein, listed as Escherichia coli)
chain: SDSPVDLKPKPKVKPKLERPKLYKVMLLNDDYTCPSFVTVVLKAVFRMSEDTGRRVMMTAHRFGSAVVVVCERDIAETKAKEATDLGKEAGFPLMFTTEPEE
notes: ClpS2 variant, native residues 34-36 ProArgGlu mutated to CysProSer
Q: Which results are given for B1?
A: dissociation rate slowed over wild-type, Phe (F1G2 peptide [1]; SPR): 27.9 fold; specificity between N-terminal Phe and Trp, in words (F1G2 peptide [1]): more specific for Phe over Trp than the wild-type protein; specificity between N-terminal Phe and Trp, in words (F1G2 peptide [1]; listed as CysProSer variant): selectively bound to Trp over Phe; KOFF Phe (F1G2 peptide [1]; from SPR dissociation curves): 0.03 s⁻¹; affinity for N-terminal Phe relative to wild-type, in words (F1G2 peptide [1]; in vitro surface binding assays): greater affinity; Selectivity for Phe, Phe/Phe (F1G2 peptide [1]; [7]): 1.0; Selectivity for Phe, Phe/Trp (F1G2 peptide [1]; [7]): 1.32; Selectivity for Phe, Phe/Tyr (F1G2 peptide [1]; [7]): 0.10; Kd (F1G2 peptide [1]; steady state, peptide on surface, 0 to 50 μM protein, read-out: KD Phe): 3.7 ± 0.3 µM; KOFF Tyr (Y1G2 peptide; from SPR dissociation curves): 0.05 s⁻¹; Selectivity for Tyr, Tyr/Phe (Y1G2 peptide; [7]): 9.82; Selectivity for Tyr, Tyr/Trp (Y1G2 peptide; [7]): 12.91; Selectivity for Tyr, Tyr/Tyr (Y1G2 peptide; [7]): 1.0; Kd (Y1G2 peptide; steady state, peptide on surface, 0 to 50 μM protein, read-out: KD Tyr): 36.1 ± 4.4 µM; KOFF Trp (W1G2 peptide [2]; from SPR dissociation curves): 0.03 s⁻¹; affinity for N-terminal Trp relative to wild-type, in words (W1G2 peptide [2]; in vitro surface binding assays / SPR): greater affinity; Selectivity for Trp, Trp/Phe (W1G2 peptide [2]; [7]): 0.76; Selectivity for Trp, Trp/Trp (W1G2 peptide [2]; [7]): 1.0; Selectivity for Trp, Trp/Tyr (W1G2 peptide [2]; [7]): 0.08; Kd (W1G2 peptide [2]; steady state, peptide on surface, 0 to 50 μM protein, read-out: KD Trp): 2.8 ± 0.3 µM; affinity for F1G2 peptide compared to wild-type (F1G2 peptide [3]): increased binding affinity; binding to Leu (Leu NAA peptide): increased affinity; binding affinity to Tyr compared to wild-type (Tyr NAA peptide): increased binding affinity; thermal stability [4]: not as thermally stable; decrease in KD for W1G2 peptide compared to wild-type (W1G2 peptide [5]): 6.6 fold; dissociation rate slowed over wild-type, Trp (W1G2 peptide [5]): 51.3 fold; affinity for W1G2 peptide compared to wild-type (W1G2 peptide [6]): improved affinity
